In paper PMC9993015 one finds Kd and response data, which are given here for 3 substances.

Like-named read-outs stand apart in the source and are kept apart here.

The target of experiment [1] is histone H3 (Homo sapiens) (UniProt P68431). The note with it: cited from earlier work.
For experiment [2], the target named is histone H4 (Homo sapiens) (UniProt P62805). The note with it: cited from earlier work.
For experiment [3], the target named is histone H3 (Homo sapiens) (UniProt P68431). The conditions noted are these: cited from earlier work. This is another data set of the same source.
Experiment [4] deals with histone H3 from calf thymus histones (UniProt P68432). The experiment is described as follows: GST pull-down, immunoblot with α-H3, band level printed under lane. The conditions noted are these: calf thymus histones (CTH); CTH input 5%.

For “53BP1 tandem TUDOR domain (from UniProt Q12888)”, the Kd is 2000 µM in experiment [1] and 20 µM in experiment [2].
On to EED WD40 (from UniProt O75530), for which the Kd in experiment [3] is above 400 µM.
Consider “GST-ING3PHD (PHD domain of the H3K4me3 reader ING3) W385A”, for which the response in experiment [4] was determined as 0.3.
